Source: IntAct's records for PubMed 19274086

B1: Serine/threonine-protein kinase STK11 (Mus musculus), Q9WTK7 (parent)
chain: MDVADPEPLGLFSEGELMSVGMDTFIHRIDSTEVIYQPRRKRAKLIGKYLMGDLLGEGSYGKVKEVLDSETLCRRAVKILKKKKLRRIPNGEANVKKEIQLLRRLRHRNVIQLVDVLYNEEKQKMYMVMEYCVCGMQEMLDSVPEKRFPVCQAHGYFRQLIDGLEYLHSQGIVHKDIKPGNLLLTTNGTLKISDLGVAEALHPFAVDDTCRTSQGSPAFQPPEIANGLDTFSGFKVDIWSAGVTLYNITTGLYPFEGDNIYKLFENIGRGDFTIPCDCGPPLSDLLRGMLEYEPAKRFSIRQIRQHSWFRKKHPLAEALVPIPPSPDTKDRWRSMTVVPYLEDLHGRAEEEEEEDLFDIEDGIIYTQDFTVPGQVLEEEVGQNGQSHSLPKAVCVNGTEPQLSSKVKPEGRPGTANPARKVCSSNKIRRLSACKQQ

Variants of: B1
Conditions: with aapk2_human PRKAA2, P54646
Sequence of aapk2_human PRKAA2, P54646 (P54646 whole entry, looked up): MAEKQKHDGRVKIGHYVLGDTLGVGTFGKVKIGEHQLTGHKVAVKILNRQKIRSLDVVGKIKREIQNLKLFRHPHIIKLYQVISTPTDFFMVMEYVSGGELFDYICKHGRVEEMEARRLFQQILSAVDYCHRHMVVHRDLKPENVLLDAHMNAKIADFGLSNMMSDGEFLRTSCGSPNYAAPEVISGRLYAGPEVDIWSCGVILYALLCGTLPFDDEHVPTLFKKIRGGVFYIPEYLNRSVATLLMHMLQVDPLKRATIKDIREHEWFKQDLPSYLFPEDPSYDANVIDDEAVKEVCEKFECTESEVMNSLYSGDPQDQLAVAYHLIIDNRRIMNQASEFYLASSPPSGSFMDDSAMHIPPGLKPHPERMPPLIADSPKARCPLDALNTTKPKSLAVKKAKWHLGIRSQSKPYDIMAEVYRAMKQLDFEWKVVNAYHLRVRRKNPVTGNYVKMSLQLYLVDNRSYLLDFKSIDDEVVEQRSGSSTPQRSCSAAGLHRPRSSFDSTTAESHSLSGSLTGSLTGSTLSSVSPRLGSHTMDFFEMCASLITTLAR

Row | Variant | effect of a mutation on the interaction
1 | D194A | disrupting interaction strength
2 | S431A | decreasing interaction strength
3 | S431D | decreasing interaction strength
